Laboratory results from article PMC2169435.

Columns and labels:
[1] = molecular target: PS2 COOH-terminal 39-amino acid bait (residues K410-I448) (human) (UniProt P49810); test: two-hybrid
[2] = molecular target: PS1 COOH-terminal bait (human); test: two-hybrid

Sequence of PS2 COOH-terminal 39-amino acid bait (residues K410-I448) (human) (P49810 410-448): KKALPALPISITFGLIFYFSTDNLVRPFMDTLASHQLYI

fold beta-galactosidase activity over negative-control baits [1] [fold]	fold beta-galactosidase activity over negative-control baits [2] [fold]	Substance
> 55	> 12	near full-length ubiquilin Y2H prey clone (residues 37-595) (domain or fragment)
> 55		ubiquilin Y2H prey clone encoding the COOH-terminal 218 residues (domain or fragment)
